In US20260125457A1 (Janssen / Centocor, published 2026):

How the values were obtained:
[1] = target: T1, wild-type calreticulin (CALRwt) expressed with MPL in engineered cancer cells (UniProt P27797 18-417, limits assumed); assay: flow cytometry on ELF-153 MPL CALRwt cells, 1 h at 37 C, AF647 secondary antibody, Geometric Mean
T1 construct: whole, on cells; also called OCI-M2 MPL CALRwt
T1 sequence (looked up): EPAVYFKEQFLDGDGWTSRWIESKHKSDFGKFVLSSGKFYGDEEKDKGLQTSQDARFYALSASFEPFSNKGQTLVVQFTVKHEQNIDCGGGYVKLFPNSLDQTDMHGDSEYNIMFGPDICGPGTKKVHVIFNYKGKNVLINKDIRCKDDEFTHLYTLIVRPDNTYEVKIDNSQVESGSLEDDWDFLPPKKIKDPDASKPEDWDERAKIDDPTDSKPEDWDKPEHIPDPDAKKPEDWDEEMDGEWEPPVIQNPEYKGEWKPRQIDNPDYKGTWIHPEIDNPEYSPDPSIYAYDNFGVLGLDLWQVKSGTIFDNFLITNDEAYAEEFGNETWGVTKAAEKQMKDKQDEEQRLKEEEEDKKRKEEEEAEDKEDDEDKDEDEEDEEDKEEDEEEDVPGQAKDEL
Procedure: (§1) FIGS. 21A-21F depict binding of different CALRmutxCD3 bispecific antibodies to CALRmut-negative or CALRmut-positive cells. Flow cytometry was used to evaluate CALRmutxCD3 binding to CALRmut-negative and CALRmut-positive cancer cells in vitro. CALRmutxCD3 antibodies were tested on a panel of cell lines, engineered to express MPL and CALRmut, after 1 hour 37° C. incubation, with subsequent incubation with secondary AF647-labeled antibody. Geometric mean fluorescence intensity of AF647 was measured to determine antibody binding.

[2] = target: T2, CD3 on primary human pan T cells (human, UniProt P07766 23-207); assay: flow cytometry on pan CD3 T cells, 1 h at 37 C, AF647 secondary antibody, Geometric Mean
T2 construct: whole, on cells; also called CD3e; CD3ε
Procedure: FIG. 22 depicts binding of different CALRmutxCD3 bispecific antibodies to pan CD3 T cells. Flow cytometry was used to evaluate CALRmutxCD3 binding to pan CD3 T cells in vitro, by 1 hour 37° C. incubation, with subsequent incubation with secondary AF647-labeled antibody. Geometric mean fluorescence intensity of AF647 was measured to determine antibody binding.
Flow cytometry was used to evaluate the CD3 arm binding of CALRmutxCD3 antibodies listed in Table 21 to CD3+ pan T cells from healthy human donor. CALRmutxCD3 were tested after 1 hour 37° C. incubation with pan T cells.

[3] = target: T3, CALRdel52 (mutant calreticulin, 52 base pair deletion, Type 1) expressed with MPL on engineered cancer cells (UniProt P27797 18-417); assay: flow cytometry on OCI-M2 MPL CALRdel52 cells, 1 h at 37 C, AF647 secondary antibody, Geometric Mean
T3 construct: whole, on cells; On the cell surface in complex with MPL; also called OCI-M2 MPL CALRdel52
T3 sequence (looked up): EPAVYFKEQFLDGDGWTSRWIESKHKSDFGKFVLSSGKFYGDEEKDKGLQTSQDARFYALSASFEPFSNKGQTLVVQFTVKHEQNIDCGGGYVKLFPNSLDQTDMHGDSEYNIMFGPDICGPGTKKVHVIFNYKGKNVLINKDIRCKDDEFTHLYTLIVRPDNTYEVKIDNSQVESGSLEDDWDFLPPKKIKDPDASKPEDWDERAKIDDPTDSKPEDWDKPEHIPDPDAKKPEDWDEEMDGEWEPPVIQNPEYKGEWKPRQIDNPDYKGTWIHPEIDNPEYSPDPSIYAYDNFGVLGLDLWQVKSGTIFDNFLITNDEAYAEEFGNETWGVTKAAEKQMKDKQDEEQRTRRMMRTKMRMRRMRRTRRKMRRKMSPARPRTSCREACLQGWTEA
Procedure: as §1

T2 sequence (P07766 23-207): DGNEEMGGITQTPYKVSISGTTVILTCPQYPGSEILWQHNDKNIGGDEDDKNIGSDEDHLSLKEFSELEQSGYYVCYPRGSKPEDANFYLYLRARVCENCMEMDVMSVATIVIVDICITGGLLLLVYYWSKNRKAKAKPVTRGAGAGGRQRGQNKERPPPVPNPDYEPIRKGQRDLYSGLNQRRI

B1: C3CRB126 CALRmut x CD3 bispecific antibody (bispecific antibody, human IgG1, kappa, L234A L235A)
heavy 1: QVQLVQSGAEVKKPGASVKVSCKASGFSLSSYAMSWVRQAPGQGLEWMGVIDSGGTTYYAQKFQGRVTMTRDTSTSTVYMELSSLRSEDTAVYYCARESYAGYDYYGHPIPYGMEPWGQGTLVTVSSASTKGPSVFPLAPSSKSTSGGTAALGCLVKDYFPEPVTVSWNSGALTSGVHTFPAVLQSSGLYSLSSVVTVPSSSLGTQTYICNVNHKPSNTKVDKKVEPKSCGGGGSGGGGSDIQMTQSPSSLSASVGDRVTITCRARQSIGTAIHWYQQKPGCAPKLLIKYASESISGVPSRFSGSGSGTDFTLTISSLQPEDFATYYCQQSGSWPYTFGQGTKLEIKGGGSGGSGGCPPCGGSGGEVQLVESGGGLVKPGGSLRLSCAASGFTFSRYNMNWVRQAPGKGLEWVSSISTSSNYIYYADSVKGRFTFSRDNAKNSLDLQMSGLRAEDTAIYYCTRGWGPFDYWGCGTLVTVSSEPKSSDKTHTCPPCPAPEAAGGPSVFLFPPKPKDTLMISRTPEVTCVVVSVSHEDPEVKFNWYVDGVEVHNAKTKPREEQYNSTYRVVSVLTVLHQDWLNGKEYKCKVSNKALPAPIEKTISKAKGQPREPQVYTLPPSREEMTKNQVSLWCLVKGFYPSDIAVEWESNGQPENNYKTTPPVLDSDGSFFLYSKLTVDKSRWQQGNVFSCSVMHEALHNHYTQKSLSLSPGK
heavy 2: QVQLVQSGAEVKKPGASVKVSCKASGFSLSSYAMSWVRQAPGQGLEWMGVIDSGGTTYYAQKFQGRVTMTRDTSTSTVYMELSSLRSEDTAVYYCARESYAGYDYYGHPIPYGMEPWGQGTLVTVSSASTKGPSVFPLAPSSKSTSGGTAALGCLVKDYFPEPVTVSWNSGALTSGVHTFPAVLQSSGLYSLSSVVTVPSSSLGTQTYICNVNHKPSNTKVDKKVEPKSCDKTHTCPPCPAPEAAGGPSVFLFPPKPKDTLMISRTPEVTCVVVSVSHEDPEVKFNWYVDGVEVHNAKTKPREEQYNSTYRVVSVLTVLHQDWLNGKEYKCKVSNKALPAPIEKTISKAKGQPREPQVYTLPPSREEMTKNQVSLSCAVKGFYPSDIAVEWESNGQPENNYKTTPPVLDSDGSFFLVSKLTVDKSRWQQGNVFSCSVMHEALHNRFTQKSLSLSPGK
light: DIQMTQSPSTLSASVGDRVTITCQASQSLYNNKNLAWYQQKPGKAPKLLIYYASALASGVPSRFSGSGSGTEFTLTISSLQPDDFATYYCQGEFNCNSADCNSFGGGTKVEIKRTVAAPSVFIFPPSDEQLKSGTASVVCLLNNFYPREAKVQWKVDNALQSGNSQESVTEQDSKDSTYSLSSTLTLSKADYEKHKVYACEVTHQGLSSPVTKSFNRGEC
notes: Chain A heavy: CALRB1114 Fab heavy part, CD3 spFv (LH), Fc; Chain B heavy: CALRB1114
**Q.** Does B1 bind [1]?
**A.** Result: no binding (tested: 100 nM)

**Q.** Does B1 bind [2]?
**A.** Result: binds

**Q.** What about the “EC50 (read off the curve)” value [3] of the same binder?
**A.** Its value is about 1 nM.
